This is an account of results in publication PMC2765250 (Vaccine, 2009).

This assay has as its target purified rhesus macaque MHC class I molecule Mamu-B*17 with human beta2-microglobulin (rhesus macaque | human). The assay can be described thus: radioligand binding.

Take LTIEAIENYF [VACV-WR peptide 71NP (LTIEAIENYF), ORF L4R]: the IC50 (commonly the concentration needed to halve the response being measured) was found to be 8.77 µM.

Molecule SSPLELFML [VACV-WR peptide 51P (SSPLELFML), ORF E9L] showed an IC50 of 11.8 µM.
